What was measured:
[1] = biological target: talin VBS1 (H1-H4) residues 482-636 (UniProt Q9Y490); test: ITC
[2] = biological target: IpaA 483-633 containing all three VBS1-3 (A483) (Shigella flexneri) (UniProt P18010); test: SEC-MALS
[3] = biological target: talin VBS1 (H1-H4) residues 482-636 (UniProt Q9Y490); test: SEC-MALS
[4] = biological target: IpaA 483-633 containing all three VBS1-3 (A483) (Shigella flexneri) (UniProt P18010); test: ITC
[5] = biological target: IpaA 524-633 containing only IpaA VBS1-2 (A524) (Shigella flexneri) (UniProt P18010); test: ITC

Substance	Kd [1]	other results
IpaA VTBS A495K peptide	2930 nM	
IpaA-VBS1 peptide (611-633) (from UniProt P18010 611-633)	15200 nM	
Talin VBS46 peptide	60 nM	
IpaA VTBS K498E peptide	300 nM	
IpaA VTBS R489A K498A peptide	328 nM	
IpaA VTBS peptide (488-512)	174 nM	
talin VBS1 (H1-H4) residues 482-636 (from UniProt Q9Y490 482-636) (domain or fragment)		stoichiometry N (talin H1-H4 per A483) [2]: 2; stoichiometry N [3]: 2; KD of the first, high affinity site [4]: 115 nM; KD of the second site [4]: 4600 nM; Kd [5]: 2000 nM
Talin VBS50 peptide	15000 to 45000 nM	
